The record followed here is a protein production outcome set (Wang et al. 2014).

This series can be described thus: label from the status in PepcDB records.
For the sequence “MRVFVTGASGWIGSAVVPELIRAGHQVVGLARSDASAEALTAAGAGVVRGTLDDLDVLRRAAADSDGVVHLAFKHDIAFSGDFKGAGEADRRAVEVIGEALAGSDRPFTIASGTPAIPGHVATEHDGHDADRAAAARGDAQHIRAVTAELTVSLSARGVRSSVVRLAPTNHGEGDNGFVPALIGIARGKGVSGYIGDGTNRWSAAHRLDSARLFRLALEKAPAGSTLHAVAEEGLPVRDLAEVVGRQLGLPVVSVPAAEAEAHFGWLAGPLAANRAASSVLTRELLGWEPVQPGLVEDLEQGHYFK”, the protein production entry is “failed”. Take “HPNVTFIIGENGTGKSTLLEGIAIALGFNAEGGTKNFRFSTNDSHSSLHEYLRISKSFNTPSDGFFLRAESFYNVASYIDEIDADLEARGNPVIDSYGGISLHEQSHGESFFSLFMNRFSGQGLYILDEPEAALSPMRQLSMLIRMHELAEQGSQFVIATHSPILMAYPESTIYSLTQEG”: the protein production entry was “failed”. As for “MSPRDVLDSIFAFPPNRDTLGGTSYLIVGNEGNILIDCPALDQTNLNFLRSHGGVRWLFLTHRGAIGRTAEIQQNYGCDILIQEQEAYLLPGLTVTTFTQEFAVTPTAKAIWTPGHSPGSSCLYYNHQGGVLFSGRHLLPNQKGEPVPLRTAKTFHWPRQIKSLQTILETLTPETLQYICPGANTGFLRGKRSIDTAYQRLASLDLKALLQTQPLILEHHHHHH”, the protein production result is listed as “not failed”. For the sequence “MRSRVVREGSVGLMLVAGVGALAGLIFWLRGVSLGQDRYDVIVEFNDTAGLTVGTPVIYRGVQVGQVIDITAQSNSVLVRIQIQPASLAIPRDSVISAQISSLLGSPNLTIEPKRNIPAEVLAKTQPRSPNCDRAVILCNGSVVEGAQSASFASILTSIATLVSEIEQAKLVNTLSQTSRDASEAARSIRQLSSSLQQQIPPLRETLNAAQGAASQVEAAIAENRQSVRTTLTNLESSSQELQDILNSLEPAIDKANSGKLVDNLNELSANLAVASRNIRDVSTALNSPENLLTLQQTLDSARITFQNAQKITTDLNRLTGDPAVIENIRRLINSLGRLLSSTGALQEQVTDLKSLPLLPVSESPAGEAVVRRPNQP”, the protein production result is on record as “failed”. The value for “MKELSKSDRTRQFIIESTAPVFNVKGLAGTSLTDLTEATNLTKGSIYGNFENKEAVAIAAFDYNWGHVKSVLTAKVQACNTYKEMLLVYSSMYNDADGSLFPVGGCPLLNTTIEADDTHDALRKKAGEAILSWKKNLVTIIKKGIQAKEFRPDTDVTKIAFSMIALVEGAILIHRATKNRAYSDYVFESLEDLIAGIEVKKK” was “not failed”; that for “MIEGKTLVVNPFIGGSAKNITDEQYISILKKIKEKMPDLNIIITSYTTDEERTEKLCKDIGKDKIFAFSNGASILNTASIIDRADVYFGASTGPTHIAGALGKKIVAIYPHKKTQSPTRWGVLGNSNVRYIIPDENNPNEDYKLEHHHHHH” was “failed”. For “MTQKFGLSAALTTPFKTDGTVDIDAMIAHARRCLSNGCDSVTLFGTTGEGCSVGSRERQAILSSFIAAGIAPSRIVTGVLVDSIEDAADQSAEALNAGARNILLAPPSYFKNVSDDGLFAWFSAVFSKIGKDARDILVYNIPSVTMVTLSVELVGRLKAAFPGIVTGVKDSSGNWSHTERLLKEHGDLAILIGDERDLARGVRLGGQGAISGVANFLTQEVRAMAVDGKDDPRIVDLVVELLKFPVTPAVKVLVSHTTGETIWSDVRAPLVAISPEDRRQIEGAFDALFRRQAA”, the protein production entry is listed as “not failed”.

For “MSHGIKLLVSGDHACFTRPEMKAERVSYDVMTPSAARGILEAIHWKPAITWVIDAIHVLKPIRFQTLRRNEVGGKVPAGKVKSAMTKGTLDGLALLADEDRQQRATTLLVDVAYVIEAHFTLTDKAGPEDNPGKHLDIFTRRARKGQCFHQPCLGTREFPARFELIDGDRPIPAAVNRSEDLGFMLWDIDHAGDRSSMFFRARMDRGVVRVPAPSSAEIRR”, the protein production result was “failed”.

For “MSTKLYYIYDPMCSWCWGYRPVWDLLQQHLPKSIDVEYVAGGLAPDSDSAMPIDQQQMIQNHWRTIEQKLGTKFNYDFWRENTARRSTYNACRAAIAAHKQSCQKAMIDAIQQAYYLRALNPSDVDVLVSVAKELSEQTSPTLDVAQFIVDINSSETNKELAKQVTLARELTQQGFPSLVLDVDGVIQQIPLDYSDYKTTLAYIIKKTS”, the protein production entry is listed as “failed”.

With “MPSLTPRCIIVRHGQTEWSKSGQYTGLTDLPLTPYGEGQMLRTGESVFRNNQFLNPDNITYIFTSPRLRARQTVDLVLKPLSDEQRAKIRVVVDDDLREWEYGDYEGMLTREIIELRKSRGLDKERPWNIWRDGCENGETTQQIGLRLSRAIARIQNLHRKHQSEGRASDIMVFAHGHALRYFAAIWFGLGVQKKCETIEEIQNVKSYDDDTVPYVKLESYRHLVDNPCFLLDAGGIGVLSYAHHNIDEPALELAGPFVSPPEEESQHGDV”, the protein production entry is “not failed”. The value for “MYKIVSDSACDLSKEYLEKHDVTIVPLSVSFDGETYYRDGVDITRDECYQRMVDDPKLFPKTSLPSVESYADVFRSFVEQGFPVVCFTITTLFSGSYNSAINAKSLVLEDYPDANICVIDSKQNTVTQALLIDQFVRMLEDGLSFEQAMSKLDALMASARIFFTVGSLDYLKMGGRIGKVATAATGKLGVKPVIIMKDGDIGLGGIGRNRNKLKNSVLQVAKKYLDENNKDNFIVSVGYGYDKEEGFEFMKEVESTLDVKLDSETNVAIGIVSAVHTGPYPIGLGVIRKYETL” was “not failed”.

In the case of “MASADEKVVEEKASVISSLLDKAKGFFAEKLANIPTPEATVDDVDFKGVTRDGVDYHAKVSVKNPYSQSIPICQISYILKSATRTIASGTIPDPGSLVGSGTTVLDVPVKVAYSIAVSLMKDMCTDWDIDYQLDIGLTFDIPVVGDITIPVSTQGEIKLPSLRDFF”, the protein production result is reported as “not failed”. As to “MFGMTLVNIFVPKLNLYHFVVGVIYLFPMIVIGFKIVKNRNITGLPLFICSGIVGVWAILLHMKMNLGHDYEFFSGPIQETVMLILLLVAVPLSYYVFACSVGCKDTRNMKALKIFPVVAFFIIVITEILGISYYGMANYVLLFSFLLLIGPLLGGLYIWEIMSNIQFKNYTT”, the protein production entry is “failed”. As to “MGKTLTGFHLKVIGVISMVFDHLLQFFSFLGVPGWFGWIGRIAAPIFLFESSEGFIHTSNRRKYMFRLLLGFWIMGILNGFLNAYFSTGGLIINNIFGTLFLGTVYMQSMDYFKQKQIGKGLLWFIVPLLISALPLVVFSSPDILSNPAILIGFQIFNLIVPSLMMTEGGFLFVLLAVAFYLFHGKKWLQISAIGVVALISAASYNFQELFGVNHQWMMILAAIPIVLYNGEKGRGMRNFFYIFYPAHIAIFAIISFFMQR”, the protein production entry is reported as “failed”. With “LLGLGVGPGDPELITLKALRLLRAAPVVGYFVAKGKKGNAFGIIEAHLDQAQVRLPLVYPVTTEKLEPPLCYETIISDFYDTAAEQLAAHLDAGRDVAVICEGDPFFYGSYMYLHDRLATRYESEVVPGVCSMLGGAAVLGAPLVYRNQSLSVLSGVLPEEELRRRLADADAAVVMKLGRNFDKVRRVLVELGLERRALYVERATMANQRIVPLERVEPMASPYFSLIVVPGDKWQGGAGGE”, the protein production entry is on record as “failed”. Turning to “MKGFIDDANYSVGLLDEGTNLGNVIDNYVYEHTLTGKNAFFVGDLGKIVKKHSQWQTVVAQIKPFYTVKCNSTPAVLEILAALGTGFACSSKNEMALVQELGVSPENIIFTSPCKQVSQIKYAAKVGVNIMTCDNEIELKKIARNHPNAKVLLHIATEDNIGGEDGNMKFGTTLKNCRHLLECAKELDVQIIGVKFHVSSACKEYQVYVHALSDARCVFDMAGEFGFTMNMLDIGGGFTGTEIQLEEVNHVISPLLDIYFPEGSGIQIISEPGSYYVSSAFTLAVNIIAKKVVENDKFSSGVEKNGSDEPAFVYYMNDGVYGSFASKLSEDLNTIPEVHKKYKEDEPLFTSSLWGPSCDELDQIVESCLLPELNVGDWLIFDNMGADSFHEPSAFNDFQRPAIYFMMSFSDWYEMQDAGITSDAMMKNFFFAPSCIQLSQEDSFSTEA”, the protein production entry is recorded as “not failed”. In the case of “MGQVEVIDRRQSVFGDDIQLQKRSSSYEIISNGVFLMSTENGRSEREMVTLGAQHMKNAVHSVLIGGLGVGITADEAVHLNDHVQVHVVEIEPSVVEWQYRYLYPFSNQALEHERTAIIISDIQQWLRTNERTYDLICLDTDNGPDWMVHKQNASLYGKIGLELVRERVRVGGAVSFWSASASESFLHELETLFDRVYEHAVSISHTLPPDYVYVACRDLEHHHHHH”, the protein production entry was “not failed”.

For the sequence “MNWIILTIAGCFEVLFTFCMGKVKETTGTEMYLWFTGFLIATLISMLLLVKATHNLPIGTAYAVWTGIGAVGTVLVGILVFKEPAGFWRLFFIVMLIGSIIGLKMVSHG”, the protein production entry is recorded as “failed”. On to “SAAHQMDSITYSNNVTQQYIQPQSLQDISAVEDEIQNKIEAARQESKQLHAQINKAKHKIQDASLFQMANKVTSLTKNKINLKPNIVLKGHNNKISDFRWSRDSKRILSASQDGFMLIWDSASGLKQNAIPLDSQWVLSCAISPSSTLVASAGLNNNCTIYRVSKENRVAQNVASIFKGHTCYISDIEFTDNAHILTASGDMTCALWDIPKAKRVREYSDHLGDVLALAIPEEPNSENSSNTFASCGSDGYTYIWDSRSPSAVQSFYVNDSDINALRFFKDGMSIVAGSDNGAINMYDLRSDCSIATFSLFRGYEERTPTPTYMAANMEYNTAQSPQTLKSTSSSYLDNQGVVSLDFSASGRLMYSCYTDIGCVVWDVLKGEIVGKLEGHGGRVTGVRSSPDGLAVCTGSWDSTMKIWSPGYQ”, for which the protein production entry is recorded as “failed”. Under “MKLAVISSIYKNDSLSKIKQSLQSLLNQENVTCDIYLYCDGPVSIDIVHFLDSFDQNSLYIFKQEQNRGLAHALNELLNIVLTKEYEYIARMDADDISMPERFVKQIAFMNSHPDIDCLGTWAIEIDDDGKEYFRKKMPITHEECLELFKKRDCMIHPTVMFRRSYFEKAGLYPEDTYFGEDTMMWAKGFKSGCKFANVPEYLFKFRLDSNFFERRRGWKHAKSIYTLRHRVNRMLGFGWKEDCYALLYAMAKLMPKSILDIIYKTVR” stands “failed”. In the case of “VQIKNATAIVTGASSGIGLAFASLLAQKGYNLLLIARNINKLNDLAKTLSTQYDTQCNVLSIDLSEENASKKVLEYIITNNLNISVLINNAGFSGNYKFLEADWSQLSKELNVMSIAVTELCYLIAPLMEKNSWGRIINVSSGAAYLPPTQSLLYTGLKSYVLNFSQSLDMELKPKGINVTALCPGFTRSEFHNTMGTNKQVSKVPNFLWQAPDQVA”, the protein production entry was “failed”. On to “MPIGSAMSRIATSSPGHDALSDRERAVAEKFAAGLTYREIGEALFIAPSTVRTHLASIYDKLGVRNKVALASHINGAIGAGMDGPPRLPGASPVLAIFPIECQTSEERWRRFADGLSSDITIDLARYADLPVIAFHTMKSLGSKPADFAADGKALGATYVVSGQLRADERRVRLSIELADADNGVSLWSERYDRQVEDIFALQDSLTETVINVIAGSYGALATVGRKAIRRKPPASLRAYDCYLLGVEQQDTFSRAGIAEAIRLFSRALELDPTLVRAWTALAYAYSIEGANGFGDDAQVSIENWRTAVENAILLDPMDSVACNCLGDLRGCLGDLEGAERAYRRAFEYGSNHADTLAMLAGSKALVAGDPAEAMPLIERAMHLNPLAPPWYFGMLGRILFTLGRHREAIAALCRSTLNSPNVLLFLALAHTSVGEAAEAARIEARLKTEFADFSVERFITCYPVTNPDAVHAIRHAAQQLARRD”, for which the protein production entry was “failed”. “MSLKGKRIGFGFTGSHCTYEEVMPHLEKLIAEGAEVRPVVSYTVQSTNTRFGEGAEWIKKIEEITGFKAINSIVGAEPLGPKIPLDCMVIAPLTGNSMSKFANAMTDSPVLMAAKATLRNGKPVVLAVSTNDALGLNGVNLMRLMATKNIYFVPFGQDAPEKKPNSMVARMELLEDTVLEALQGKQLQPVVVEKFRYMNLEHHHHHH”: the protein production result was “not failed”.
